{"source": "patent US20250084188A1", "about": "(CHUNGBUK NATIONAL UNIVERSITY INDUSTRY ACADEMIC COOPERATION …, published 2025)", "binders": {"B1": {"name": "F4 (IgG) (antibody, V domains shown)", "VH": "not shown", "VL": "DIQMTQSPSSLSASVGDRVTITCRASQSISRWLNWYQQKPGKAPKLLIYAASRLQSGVPSRFSGSGSGTDFTLTISSLQPEDFATYYCQQSYSTPWTFGQGTKVEIK", "notes": "Converted into the IgG form of human antibodies, expressed in ExpiCHO-S"}, "B2": {"name": "E7 (IgG) (antibody, V domains shown)", "VH": "EVQLVESGGGLVQPGGSLRLSCAASGFTFSSYAMHWVRQAPGKGLEWVSAISSSGGSIYYADSVKGRFTISRDNSKNTLYLQMNSLRAEDTAVYYCAKQGLSFDIWGQGTLVTVSS", "VL": "B1 VL with R31N, A51T, T94F, W96Y", "notes": "as for B1"}, "B3": {"name": "F2 (IgG) (antibody, V domains shown)", "VH": "EVQLVESGGGLAQPGGSLRLSCAASGFTFSSYAMHWVRQAPGKGLEWVSSIKSSGGSKNYADSVKGRFTISRDNSKNTLYLQMNSLRAEDTAVYYCAKGYGASFDFWGQGTLVTVSS", "VL": "B1 VL with S28D, R31S, S91A, T94F", "notes": "as for B1"}, "B4": {"name": "H7 (IgG) (antibody, V domains shown)", "VH": "EVQLVESGGGLVQPGGSLRLSCAASGFTFSSYGMHWVRQAPGKGLEWVSGISSSGGSKYYADSVKGRFTISRDNSKNTLYLQMNSLRAEDTAVYYCAKHGHQQMDFWGQGTLVTVSS", "VL": "B1 VL with R31S, S91T, T94F", "notes": "as for B1"}, "B5": {"name": "C5 (IgG) (antibody, V domains shown)", "VH": "EVQLVESGGGLVQPGGSLRLSCAASGFTFSSYAMSWVRQAPGKGLEWVSSISSSSGTTHYADSVKGRFTISRDNSKNTLYLQMNSLRAEDTAVYYCAKGGAFDYWGQGTLVTVSS", "VL": "B1 VL with S28D, R53T, T94F, W96L", "notes": "as for B1"}, "B6": {"name": "A7 (IgG) (antibody, V domains shown)", "VH": "EVQLVESGGGLVQPGGSLRLSCAASGFTFSDYAMSWVRQAPGKGLEWVSGISSSGGTIYYADSVKGRFTISRDNSKNTLYLQMNSLRAEDTAVYYCAKAIGSWADIWGQGTLVTVSS", "VL": "B1 VL with S28D, R31N, W32Y, R53S, T94F, W96Y", "notes": "as for B1"}, "B7": {"name": "1E12 (IgG) (antibody, V domains shown)", "VH": "EVQLVESGGGLVQPGGSLRLSCAASGFTFSSYAMHWVRQAPGKGLEWVSAISSSGGTKYYADSVKGRFTISRDNSKNTLYLQMNSLRAEDTAVYYCAKGLQGGAGAFDIWGQGTLVTVSS", "VL": "B1 VL with R31N, W32Y, A51T, R53T, Q55H, T94F", "notes": "as for B1"}, "B8": {"name": "A5 (IgG) (antibody, V domains shown)", "VH": "not shown", "VL": "B1 VL with A51T, R53T, T94F", "notes": "as for B1"}, "B9": {"name": "H1 (IgG) (antibody, V domains shown)", "VH": "B6 VH with D31S, G50A, S52R, I58T, A99S, I100Q, G101S, S102T, W103V, I106Y", "VL": "B1 VL with R31N, A51T, T94F, W96L", "notes": "as for B1"}, "B10": {"name": "D2 (IgG) (antibody, V domains shown)", "VH": "B6 VH with D31S, S35H, G50A, G55S, A99D, I100F, S102A, W103V, A104F, I106Y", "VL": "not shown", "notes": "as for B1"}, "B11": {"name": "E7 Fab clone (phage-displayed) (Fab, V domains shown)", "VH": "B2 VH", "VL": "B1 VL with R31N, A51T, T94F, W96Y"}, "B12": {"name": "F2 Fab clone (phage-displayed) (Fab, V domains shown)", "VH": "B3 VH", "VL": "B1 VL with S28D, R31S, S91A, T94F"}, "B13": {"name": "1E12 Fab clone (phage-displayed) (Fab, V domains shown)", "VH": "B7 VH", "VL": "B1 VL with R31N, W32Y, A51T, R53T, Q55H, T94F"}, "B14": {"name": "H7 Fab clone (phage-displayed) (Fab, V domains shown)", "VH": "B4 VH", "VL": "B1 VL with R31S, S91T, T94F"}, "B15": {"name": "A7 Fab clone (phage-displayed) (Fab, V domains shown)", "VH": "B6 VH", "VL": "B1 VL with S28D, R31N, W32Y, R53S, T94F, W96Y"}, "B16": {"name": "F4 Fab clone (phage-displayed) (Fab, V domains shown)", "VH": "not shown", "VL": "B1 VL"}, "B17": {"name": "C5 Fab clone (phage-displayed) (Fab, V domains shown)", "VH": "B5 VH", "VL": "B1 VL with S28D, R53T, T94F, W96L"}, "B18": {"name": "H1 Fab clone (phage-displayed) (Fab, V domains shown)", "VH": "B6 VH with D31S, G50A, S52R, I58T, A99S, I100Q, G101S, S102T, W103V, I106Y", "VL": "B1 VL with R31N, A51T, T94F, W96L"}, "B19": {"name": "A5 Fab clone (phage-displayed) (Fab, V domains shown)", "VH": "not shown", "VL": "B1 VL with A51T, R53T, T94F"}, "B20": {"name": "D2 Fab clone (phage-displayed) (Fab, V domains shown)", "VH": "B6 VH with D31S, S35H, G50A, G55S, A99D, I100F, S102A, W103V, A104F, I106Y", "VL": "not shown"}}, "note": "Where a chain is given by its changes, count along the chain named.", "data": [{"target": "T1, human chitinase-3-like protein 1 (hCHI3L1) (human, UniProt P36222 22-383)", "T1 construct": "Antigen used for phage display panning and ELISA; also called YKL-40; CHI3L1 antigen protein", "T1 sequence (P36222 22-383 limits assumed)": "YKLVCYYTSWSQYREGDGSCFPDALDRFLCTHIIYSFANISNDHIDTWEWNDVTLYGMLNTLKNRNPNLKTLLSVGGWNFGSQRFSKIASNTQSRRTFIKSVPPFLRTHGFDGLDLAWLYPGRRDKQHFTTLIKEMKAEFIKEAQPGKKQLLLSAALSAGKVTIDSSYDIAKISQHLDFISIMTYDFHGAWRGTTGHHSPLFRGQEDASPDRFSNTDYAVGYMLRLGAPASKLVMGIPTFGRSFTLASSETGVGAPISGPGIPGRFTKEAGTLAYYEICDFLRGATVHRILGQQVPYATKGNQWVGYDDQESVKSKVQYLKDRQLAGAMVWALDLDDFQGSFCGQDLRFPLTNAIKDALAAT", "assay": "ELISA, purified IgG on CHI3L1 antigen protein", "values": [{"binder": "B1", "binding result": "binds"}, {"binder": "B2", "binding result": "binds"}, {"binder": "B3", "binding result": "binds"}, {"binder": "B4", "binding result": "binds"}, {"binder": "B5", "binding result": "binds"}, {"binder": "B6", "binding result": "binds"}, {"binder": "B7", "binding result": "binds"}, {"binder": "B8", "binding result": "binds"}, {"binder": "B9", "binding result": "binds"}, {"binder": "B10", "binding result": "binds"}]}, {"target": "T1, human chitinase-3-like protein 1 …", "assay": "monoclonal phage ELISA, phage-displayed Fab on CHI3L1", "values": [{"binder": "B11", "binding result": "binds"}, {"binder": "B12", "binding result": "binds"}, {"binder": "B13", "binding result": "binds"}, {"binder": "B14", "binding result": "binds"}, {"binder": "B15", "binding result": "binds"}, {"binder": "B16", "binding result": "binds"}, {"binder": "B17", "binding result": "binds"}, {"binder": "B18", "binding result": "binds"}, {"binder": "B19", "binding result": "binds"}, {"binder": "B20", "binding result": "binds"}]}]}
